Two molecules from US20070031417A1 (UNIVERSITY OF MASSACHUSETTS, published 2007) can be followed below.

Sequences and labels used below:
B1: DRH-2 (enzyme)
chain: MIVNLCNEHRDPLDDEYPPEQFFLSTFTIIFFDECHNTVKNSPYSNVMREYHYLKNMGNMPEGHSFPQIIGLTASLGTGDKKNCMQVRSYIAGLCANMDVKELSIVKDNLEELLDHNPFVTDQVSFCERSNDGPIEMFTKRLKQMMQEVEDLIRTTLKNEPTVKYEIPPTDKEHNRYENWISNQRNCVSLAGSRNKTLIIEVLDVLKDCFYALSYNINFNPEVALKKYLEKELGPERIRNFTDNMNLIWDNCHRELVGIGSAENPMIARTVQFILDQNEQTSDFRAIIFVRTKKEADFLNYVLNDRLHELGIKSDWMSGQKKSTASSADISASKQKQMEKLKMFADGENQILVSTSVAEEGLDIPECSLVIKYNYATNETAHVQRRGRARARNSKCVLITNSIALHVQESNNLAKENLMTETISLIQNSPGEFRQCVDEESNKVWPRIQREDTDKAQRIKEQINRNIVYKIVCMKCDTVLCTNKDIRSKNTQYIVCNPGFWSLVRRIPLPLEQRASNKFNSTGSIECLGERCGSKLGQLIDVNTVNLPCLKVKSILLLIESTNERILVKQWKNILDEHFTPTTLKQRDVQTMKDADYGRAPIEFEHHTANGEVINVIRQA
notes: Endogenous protein from C. elegans extract; also called C01B10.1; Dicer-Related Helicase
B2: RDE-4 (other)
chain: MDLTKLTFESVFGGSDVPMKPSRSEDNKTPRNRTDLEMFLKKTPLMVLEEAAKAVYQKTPTWGTVELPEGFEMTLILNEITVKGQATSKKAARQKAAVEYLRKVVEKGKHEIFFIPGTTKEEALSNIDQISDKAEELKRSTSDAVQDNDNDDSIPTSAEFPPGISPTENWVGKLQEKSQKSKLQAPIYEDSKNERTERFLVICTMCNQKTRGIRSKKKDAKNLAAWLMWKALEDGIESLESYDMVDVIENLEEAEHLLEIQDQASKIKDKHSALIDILSDKKRFSDYSMDFNVLSVSTMGIHQVLLEISFRRLVSPDPDDLEMGAEHTQTEEIMKATAEKEKLRKKNMPDSGPLVFAGHGSSAEEAKQCACKSAIIHFNTYDFTD
notes: Endogenous protein from C. elegans extract; also called T20G5.11

What all share (assay): found in two independent RDE-4 purifications, absent from controls, MudPIT (P = present)
For test [1], the target named is B2.
In test [2] the target is T1, EFT-2, EF-Tu family GTP binding protein (Caenorhabditis elegans, UniProt P29691 2-852).
T1 construct: Endogenous protein from C. elegans extract; also called F25H5.4; translation elongation factor 2

In test [3] the target is T2, TBB-4 (Caenorhabditis elegans, UniProt P41937 1-444).
T2 construct: Endogenous protein from C. elegans extract; also called B0272.1; tubulin, Beta
T2 sequence (P41937 whole entry): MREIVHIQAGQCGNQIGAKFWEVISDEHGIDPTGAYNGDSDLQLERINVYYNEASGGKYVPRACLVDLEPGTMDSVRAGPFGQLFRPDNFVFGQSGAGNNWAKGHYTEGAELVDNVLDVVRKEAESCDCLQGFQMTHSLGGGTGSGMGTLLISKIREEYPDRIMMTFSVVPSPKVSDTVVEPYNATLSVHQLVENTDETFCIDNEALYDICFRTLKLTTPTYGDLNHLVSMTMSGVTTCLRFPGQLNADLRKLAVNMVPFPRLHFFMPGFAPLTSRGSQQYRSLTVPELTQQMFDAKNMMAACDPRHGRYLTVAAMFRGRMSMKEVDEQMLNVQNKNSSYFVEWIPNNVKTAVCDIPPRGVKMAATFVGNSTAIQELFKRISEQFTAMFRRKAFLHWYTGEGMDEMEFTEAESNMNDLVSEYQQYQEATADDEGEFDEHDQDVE

For the molecule B1, in test [1], the binding result is “binds”.

On to B2, for which the binding result in test [2] and in test [3] was “binds” throughout.
